Biological target: T1, CD147^+ A549 cells (Homo sapiens, UniProt P35613)
T1 construct: endogenous in cells; host or cells: A549 (human lung cancer cell line)
T1 sequence (P35613 22-269 isoform P35613-2 limits assumed): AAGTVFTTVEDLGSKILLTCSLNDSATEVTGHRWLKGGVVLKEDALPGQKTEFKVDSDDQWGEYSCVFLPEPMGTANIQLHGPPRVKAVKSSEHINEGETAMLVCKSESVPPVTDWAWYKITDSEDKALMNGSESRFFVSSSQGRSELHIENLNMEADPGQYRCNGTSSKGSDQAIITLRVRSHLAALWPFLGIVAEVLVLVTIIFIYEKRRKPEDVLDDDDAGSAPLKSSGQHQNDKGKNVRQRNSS
Test: Antigen-binding activity by flow cytometry
Experimental: The antibody concentration is 0.001 μg/mL, 0.01 μg/mL, 0.1 μg/mL, 1 μg/ml and 10 μg/mL, respectively.
A549 cells (10^6 cells) were incubated with the Metuzumab (HcHAb18) and cHAb18 antibody, respectively, in PBS with 0.1% BSA at 4° C. for 1 h. After three washes in PBS with 0.1% BSA, cells were incubated with the FITC-conjugated Rabbit anti-Human IgG Fc Secondary Antibody (Pierce) at 4° C. in the dark for 45 min. Cells were then washed three times and suspended in PBS for analysis using a FACS Calibur flow cytometer (BD, New Jersey, U.S.). Relative antigen expression is reported as median fluorescence intensity (MFI).

cHAb18: human-mouse chimeric anti-CD147 antibody, variable domains from HAb18, human IgG1 constant domains, fucosylated (CHO K1)
CD147-binding ability, Metuzumab compared with cHAb18 (FIG. 4): similar | Binding to CD147^+ A549 cells (FIG. 4, 0.001-10 μg/mL): bound
